Results reported in patent publication US20230212549A1 (3B PHARMACEUTICALS, published 2023).
Numbered stars: 1 amine (or outer) side, 2 acyl side, 3 side chain; on linkers, the order of the positions; unused ones are H or OH. Bridge positions count the residues as written; N and C are the ends. Square brackets hold non-standard residues; d marks the D form. Primed or numbered codes have the meaning given here. * marks the point of attachment. TBMB(SCH2CH2NH-DOTA) = O=C(O)CN1CCN(CC(=O)O)CCN(CC(=O)NCCSCc2cc(C[*:1])cc(C[*:2])c2)CCN(CC(=O)O)CC1; 3Lut″ = 3,5-lutidylidene (from 3,5-lutidine); mXylylene = c1cc(C[*:1])cc(C[*:2])c1; Pentanesulfonyl = CCCCCS(=O)(=O)*; Hexanoyl = CCCCCC(=O)*

B1: Hex-[Cys(3MeBn)-Pro-Pro-Thr-Gln-Phe-Cys]-Asp-NH2 (peptide)
peptide: Hexanoyl-CPPTQFCD-NH2
modifications: linker 1-7 via mXylylene
SMILES: CCCCCC(=O)N[C@H]1CSCc2cccc(c2)CSC[C@@H](C(=O)N[C@@H](CC(=O)O)C(N)=O)NC(=O)[C@H](Cc2ccccc2)NC(=O)[C@H](CCC(N)=O)NC(=O)[C@H]([C@@H](C)O)NC(=O)[C@@H]2CCCN2C(=O)[C@@H]2CCCN2C1=O
B2: Ac-met-[Cys(3MeBn)-Pro-Pro-Thr-Glu-Phe-Cys]-Asp-His-Phe-Arg-Asp-NH2 (peptide)
peptide: Ac-[dM]CPPTEFCDHFRD-NH2
modifications: linker 2-8 via mXylylene
SMILES: CSCC[C@@H](NC(C)=O)C(=O)N[C@H]1CSCc2cccc(c2)CSC[C@@H](C(=O)N[C@@H](CC(=O)O)C(=O)N[C@@H](Cc2c[nH]cn2)C(=O)N[C@@H](Cc2ccccc2)C(=O)N[C@@H](CCCNC(=N)N)C(=O)N[C@@H](CC(=O)O)C(N)=O)NC(=O)[C@H](Cc2ccccc2)NC(=O)[C@H](CCC(=O)O)NC(=O)[C@H]([C@@H](C)O)NC(=O)[C@@H]2CCCN2C(=O)[C@@H]2CCCN2C1=O
notes: also called 3BP-3187
B3: Hex-[Cys(tMeBn(DOTA-AET))-Pro-Pro-Thr-Gln-Phe-Cys]-Asp-NH2 (peptide)
peptide: Hexanoyl-CPPTQFCD-NH2
modifications: linker 1-7 via TBMB(SCH2CH2NH-DOTA)
SMILES: CCCCCC(=O)N[C@H]1CSCc2cc(CSCCNC(=O)CN3CCN(CC(=O)O)CCN(CC(=O)O)CCN(CC(=O)O)CC3)cc(c2)CSC[C@@H](C(=O)N[C@@H](CC(=O)O)C(N)=O)NC(=O)[C@H](Cc2ccccc2)NC(=O)[C@H](CCC(N)=O)NC(=O)[C@H]([C@@H](C)O)NC(=O)[C@@H]2CCCN2C(=O)[C@@H]2CCCN2C1=O
notes: also called 3BP-3426
B4: Ac-Met-[cys(3MeBn)-Pro-Pro-Thr-Glu-Phe-Cys]-Asp-His-Phe-Arg-Asp-NH2 (peptide)
peptide: Ac-M[dC]PPTEFCDHFRD-NH2
modifications: linker 2-8 via mXylylene
SMILES: CSCC[C@H](NC(C)=O)C(=O)N[C@@H]1CSCc2cccc(c2)CSC[C@@H](C(=O)N[C@@H](CC(=O)O)C(=O)N[C@@H](Cc2c[nH]cn2)C(=O)N[C@@H](Cc2ccccc2)C(=O)N[C@@H](CCCNC(=N)N)C(=O)N[C@@H](CC(=O)O)C(N)=O)NC(=O)[C@H](Cc2ccccc2)NC(=O)[C@H](CCC(=O)O)NC(=O)[C@H]([C@@H](C)O)NC(=O)[C@@H]2CCCN2C(=O)[C@@H]2CCCN2C1=O
notes: also called 3BP-3175
B5: Hex-[Cys(tMeBn(DOTA-AET))-Pro-Pro-Thr-Gln-Phe-Cys]-asp-NH2 (peptide)
peptide: CPPTQFCD
modifications: N-term Hex; Cys1/Cys7 thioether-bridged by tMeBn carrying DOTA-AET; D-Asp8; C-term amide
notes: also called 3BP-3681
B6: Pentyl-SO2-[Cys(3MeBn)-Pro-Pro-Thr-Gln-Phe-Cys]-Asp-NH2 (peptide)
peptide: Pentanesulfonyl-CPPTQFCD-NH2
modifications: linker 1-7 via mXylylene
SMILES: CCCCCS(=O)(=O)N[C@H]1CSCc2cccc(c2)CSC[C@@H](C(=O)N[C@@H](CC(=O)O)C(N)=O)NC(=O)[C@H](Cc2ccccc2)NC(=O)[C@H](CCC(N)=O)NC(=O)[C@H]([C@@H](C)O)NC(=O)[C@@H]2CCCN2C(=O)[C@@H]2CCCN2C1=O
notes: also called 3BP-3514
B7: Hex-[Cys(tMeBn(InDOTA-AET))-Pro-Pro-Thr-Gln-Phe-AET] (peptide)
peptide: CPPTQFX
modifications: not fully specified; N-term Hex; X7 = AET (2-aminoethanethiol, no carboxyl group); Cys1/AET7 thioether-bridged by tMeBn carrying InDOTA-AET (indium complex)
notes: also called 3BP-3713

What follows are binders tested against Recombinant human FAP (R&D systems, #3715-SE) (human, UniProt Q12884 26-760) (assay: cell-based or functional assay).
With B1 the “pIC50 Category (Activity)” value was > 8 pIC50.
In the case of Hexanoyl-CPPTQFCD-NH2 (linker 1-7 via tMeBn(LuDOTA-PP); also: lutetium complex of DOTA, also called 3BP-3591) [Hex-[Cys(tMeBn(LuDOTA-PP))-Pro-Pro-Thr-Gln-Phe-Cys]-Asp-NH2], the “pIC50 Category (Activity)” value is reported as > 8 pIC50.
B2 was tested, and the “pIC50 Category (Activity)” value was > 8 pIC50.
Hexanoyl-CPPTQFCD-NH2 (linker 1-7 via 3Lut″, also called 3BP-3519) [Hex-[Cys(3Lut)-Pro-Pro-Thr-Gln-Phe-Cys]-Asp-NH2] was tested, and the “pIC50 Category (Activity)” value was > 8 pIC50.
For B3, the “pIC50 Category (Activity)” value was > 8 pIC50.
In the case of B4, the “pIC50 Category (Activity)” value is reported as > 8 pIC50.
With B5 the “pIC50 Category (Activity)” value was > 8 pIC50.
With B6 the “pIC50 Category (Activity)” value was > 8 pIC50.
B7 was tested, and the “pIC50 Category (Activity)” value was > 8 pIC50.

Each binder was assayed against T1, fibroblast activation protein (FAP) on FAP-expressing human WI-38 fibroblasts (human, UniProt Q12884 1-760) (assay: competitive FACS, WI-38 cells, vs Cy5 tracer m3; A = pIC50 >8.0).
T1 construct: also called human FAP
In the case of B1, the “pIC50 Category (FACS)” value is reported as > 8 pIC50.
With Hexanoyl-CPPTQFCD-NH2 (linker 1-7 via tMeBn(LuDOTA-PP); also: lutetium complex of DOTA, also called 3BP-3591) [Hex-[Cys(tMeBn(LuDOTA-PP))-Pro-Pro-Thr-Gln-Phe-Cys]-Asp-NH2] the “pIC50 Category (FACS)” value was > 8 pIC50.
In the case of B2, the “pIC50 Category (FACS)” value is reported as > 8 pIC50.
Hexanoyl-CPPTQFCD-NH2 (linker 1-7 via 3Lut″, also called 3BP-3519) [Hex-[Cys(3Lut)-Pro-Pro-Thr-Gln-Phe-Cys]-Asp-NH2] was tested, and the “pIC50 Category (FACS)” value was > 8 pIC50.
For B3, the “pIC50 Category (FACS)” value was > 8 pIC50.
For B4, the “pIC50 Category (FACS)” value was > 8 pIC50.
With B5 the “pIC50 Category (FACS)” value was > 8 pIC50.
With B6 the “pIC50 Category (FACS)” value was > 8 pIC50.
In the case of B7, the “pIC50 Category (FACS)” value is reported as > 8 pIC50.
